What all share (assay): cell-based or functional assay
The target of experiment [1] is HIV-1 Env of pseudovirus CMU02 (clade CRF01_AE) (HIV-1).
The target of experiment [2] is HIV-1 Env of isolate CAAN.A2 (Acute), clade B, on pseudovirus (HIV-1).
The target of experiment [3] is HIV-1 Env of isolate PVO.4 (Acute), clade B, on pseudovirus (HIV-1).
In experiment [4] the target is HIV-1 Env of isolate MGRM-D-012 (clade D pseudovirus) (HIV-1).
Experiment [5] concerns the target HIV-1 envelope glycoprotein (Env) of isolate 93UG077, clade A (HIV-1).
Experiment [6] has as its target HIV-1 Env of pseudovirus MGRM-F1-012 (HIV-1).
In experiment [7] the target is HIV-1 IAVI-C18 envelope glycoprotein (Env) on pseudovirus (HIV-1).
For experiment [8], the target named is HIV-1 Env of isolate 93TH305, clade B, on pseudovirus (HIV-1).
The target of experiment [9] is HIV-1 Env of pseudovirus MGRM-F1-015 (HIV-1).
For experiment [10], the target named is HIV-1 envelope glycoprotein (Env) of isolate MGRM-A-003, clade A (HIV-1).
Experiment [11] addresses aMLV envelope protein on pseudovirus (negative control).
Experiment [12] concerns the target HIV-1 APV-6 envelope glycoprotein (Env) on pseudovirus (HIV-1).
Experiment [13] has as its target HIV-1 envelope glycoprotein (Env) of isolate MGRM-A-008, clade A (HIV-1).
Experiment [14] deals with HIV-1 Env of pseudovirus MGRM-F1-006 (HIV-1).
Experiment [15] has as its target HIV-1 Env of pseudovirus MGRM-AG-009 (clade CRF_AG) (HIV-1).

Sequence of 1443_C16 (PG16) (TCN-116) (antibody) (VH): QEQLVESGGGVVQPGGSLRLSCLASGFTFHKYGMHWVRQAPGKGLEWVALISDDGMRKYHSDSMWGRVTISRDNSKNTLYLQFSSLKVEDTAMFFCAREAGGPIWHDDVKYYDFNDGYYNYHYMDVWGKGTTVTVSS
Sequence of 1443_C16 (PG16) (TCN-116) (antibody) (VL): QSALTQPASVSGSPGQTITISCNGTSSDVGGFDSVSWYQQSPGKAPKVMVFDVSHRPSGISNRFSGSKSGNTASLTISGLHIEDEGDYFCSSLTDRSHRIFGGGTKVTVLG

Consider 2G12 (antibody), for which the IC50 in [1] and in experiment [15] was above 50 µg/mL throughout. The IC50 (µg/ml), pseudovirus neutralization in experiment [2] is above 50 µg/mL; in [3] it was 0.8 µg/mL; in [4] it was above 50 µg/mL; in experiment [5] it was above 50 µg/mL; in experiment [6], 1.81 µg/mL; in experiment [8] it was 0.55 µg/mL. Besides, the IC50 (µg/ml), pseudovirus neutralization in experiment [9], in experiment [10], in [13] and in experiment [14] was above 50 µg/mL each time. The IC50, pseudovirus neutralization in experiment [7] is above 50 µg/mL; in experiment [12], 5.3 µg/mL. The substance further displayed an IC90 (pseudovirus neutralization) in experiment [11] above 50 µg/mL.
For the substance 4E10 (antibody), the IC50 (commonly the concentration that gives 50% inhibition) in experiment [1] came to 0.72 µg/mL; in experiment [15], 31.4 µg/mL. The IC50 (µg/ml), pseudovirus neutralization stood at 17.9 µg/mL in experiment [2]; 18.3 µg/mL in experiment [3]; 1.13 µg/mL in experiment [4]; 10.6 µg/mL in experiment [5]; 0.37 µg/mL in experiment [6]; 12.3 µg/mL in experiment [8]. Moreover, the IC50 (µg/ml), pseudovirus neutralization in [9] worked out at 0.53 µg/mL; in [10] it was 5.94 µg/mL; in [13], 7.59 µg/mL; in experiment [14], 1.01 µg/mL. For the same substance, the IC50, pseudovirus neutralization in [7] was above 50 µg/mL; in experiment [12], 0.4 µg/mL. The same substance displayed an IC90 (pseudovirus neutralization) in [11] above 50 µg/mL.
Turning to 1443_C16 (PG16) (TCN-116) (antibody), the figures for the IC50 in [1] and in [15] were 43.6 µg/mL and above 50 µg/mL, respectively. Moreover, the IC50 (µg/ml), pseudovirus neutralization in [2] was 8.83 µg/mL; in [3], 5.43 µg/mL; in experiment [4], 0.35 µg/mL; in [5], above 50 µg/mL; in experiment [6], 0.003 µg/mL; in experiment [8] it was 19.3 µg/mL. Besides, the IC50 (µg/ml), pseudovirus neutralization in experiment [9] was above 50 µg/mL; in experiment [10], 2.65 µg/mL; in experiment [13], above 50 µg/mL; in experiment [14], 0.27 µg/mL. The values for the IC50, pseudovirus neutralization in [7] and in [12] were 0.0067 µg/mL and 0.08 µg/mL, respectively. For the same substance, the IC90 (pseudovirus neutralization) in experiment [11] was above 50 µg/mL.
For b12 (antibody), the IC50 in experiment [1] is 29.3 µg/mL; in [15], above 50 µg/mL. The IC50 (µg/ml), pseudovirus neutralization in experiment [2] was above 50 µg/mL; in experiment [3] it was above 50 µg/mL; in [4], 0.13 µg/mL; in experiment [5] it was 47 µg/mL; in [6], above 50 µg/mL; in [8], 4.17 µg/mL. In addition, the IC50 (µg/ml), pseudovirus neutralization in [9], in experiment [10], in [13] and in [14] was above 50 µg/mL throughout. In addition, the IC50, pseudovirus neutralization was above 50 µg/mL in experiment [7] and above 25 µg/mL in [12]. The same substance had an IC90 (pseudovirus neutralization) in [11] above 50 µg/mL.
